Results taken from the supplement of paper PMC10567573.
± gives the standard deviation.

Assay: protein stability index of a GFP-peptide fusion (GPS, HEK-293T) (PSI 1-6); higher = more stable
Conditions: c terminus: a fixed tail appended
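Further: 24-mer peptide tiles fused after GFP, lentivirally expressed, FACS-sorted into six equal bins by GFP/DsRed ratio, decoded by Illumina sequencing, PSI is the read-weighted mean bin number.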

| Sequence | protein stability index (treatment: DMSO) | protein stability index (treatment: MLN4924 1 uM, 8 h) |
| --- | --- | --- |
| KMPVYSGSRPACQLQVPTLRQQCA [ELOA2] | 3.23 ± 0.32 | 3.14 ± 0.15 |
| GSTNLTGLFFPPQLNGTANDTAGP [NFE2L1] | 3.93 ± 0.14 | 4 ± 0.25 |
| AKYEYMEEQVILTEKDLLEDGFGE [SAT1] | 4.02 ± 0.4 | 4.06 ± 0.37 |
| LAPPPLPLPAAAVVHVSFPEVTSA [ZBTB22] | 3.3 ± 0.3 | 3.73 ± 0.55 |
| REAVPALLGEPLAGPELDEMLREV [CABP4] | 5.13 ± 0.22 | 5.12 ± 0.31 |
| DPGLWSRLCRLAGASSPAAYDEAL [ZSWIM9] | 2.82 ± 0.15 | 2.78 ± 0.24 |
| LEIPVETITSEVIEKCTTPLSDDH [CRY1] | 4.8 ± 0.23 | 5.02 ± 0.3 |
| TFEVPEENTAETITRVLYEVFIEW [ZBED1] | 2.07 ± 0.4 | 2 ± 0.47 |
| LHMSQRERTWPPPAMSPYWRTWMT [C22orf15] | 2.31 ± 0.24 | 2.56 ± 0.37 |
| GSSPKSKTKWTKEDGHRTSTSAVP [ADD1] | 4.96 ± 0.17 | 4.81 ± 0.25 |
| MDSDFSHAFQKELTCVICLNYLVD [TRIM43] | 2.6 ± 0.39 | 2.53 ± 0.44 |
| APRGTPDPGLGEGPALWLRSTCVY [PLEKHN1] | 2.43 ± 0.24 | 2.34 ± 0.27 |
| TNNPRFDKMEGNPICVQIPWDKNP [CRY1] | 3.47 ± 0.3 | 3.69 ± 0.25 |
| PYTPPATSHRRVTDVRGLEEFLSA [PLEKHN1] | 3.98 ± 0.19 | 3.91 ± 0.35 |
| DISMEIDSPENMMRHIRFLKNEVE [CCDC6] | 4.09 ± 0.39 | 3.86 ± 0.33 |
| IRGRYLVALGHAYHPEEFVCSQCG [PDLIM7] | 2.51 ± 0.18 | 2.77 ± 0.3 |
| RRNPELQEELQIQAAVAAGDVHTV [ASB7] | 4.85 ± 0.18 | 4.82 ± 0.16 |

| Sequence | protein stability index (treatment: DMSO) | protein stability index (treatment: MLN4924 1 uM, 8 h) |
| --- | --- | --- |
| GSLCSPWAAPRVGPLPPAPAMVRI [YPEL3] | 2.95 ± 0.15 | 3.07 ± 0.45 |
| LFVIRGQPADVFPRLFKEWNITKL [CRY1] | 2.18 ± 0.29 | 2.24 ± 0.32 |
| GSCEDEPMDSTMDDAVAGDFALIN [ATE1] | 5.25 ± 0.25 | 5.44 ± 0.16 |
| VLDFDFEKLCSISLSHINAYACLV [USP39] | 2.83 ± 0.59 | 2.56 ± 0.53 |
| PDVLRTKPAFIGKTNLDGMITVQL [PTPRD] | 2.52 ± 0.53 | 2.13 ± 0.57 |
| GHGNKVLCMDWCKDKRRIVSSSQD [GNB5] | 3.64 ± 0.28 | 3.85 ± 0.45 |
| TDDQLLALLPSLSHCSQLTTLSFY [PRAME] | 2.26 ± 0.37 | 2.05 ± 0.3 |
| MESSKPGPVQVVLVQKDQHSFELD [ATL3] | 4.35 ± 0.19 | 4.04 ± 0.33 |
| EELEEALEVERQENEQRRLFIQKE [MNAT1] | 5.05 ± 0.24 | 5 ± 0.16 |
| FDIQKIMQEKNPVHVIGVEEPSVG [ZNF8] | 4.07 ± 0.39 | 4 ± 0.4 |
| AFCSSDEELEDSKALLYLPIAPEV [RBBP5] | 3.7 ± 0.21 | 3.66 ± 0.28 |
| ITKQGDGVDFLSWFLNALHSALGG [USP39] | 2.22 ± 0.47 | 2.11 ± 0.21 |
| LSKILAKLERLKQQNEDLRRMAES [FUT8] | 2.9 ± 0.22 | 3.12 ± 0.24 |
| MTTLTHRARRTEISKNSEKKMESE [GOLPH3L] | 5 ± 0.55 | 5.07 ± 0.18 |
| EGAQLKKVEQNSRPVSCSGRDALL [WASL] | 4.53 ± 0.39 | 4.72 ± 0.48 |
| AAFGHVQRAEMLPKTSGTRATSLG [CPOX] | 3.82 ± 0.18 | 3.91 ± 0.077 |
